Laboratory results as given in patent publication US20040072301A1 (VAN ANDEL RESEARCH INSTITUTE, published 2004).
Substitutions are numbered along the chain they refer to. Numbers in names are those of the source. Values belong to the binder of their own block, whether it stands above or below them.

Key:
[1] = biological target: T1, Arp2/3 complex from NIH 3T3 cell lysates (UniProt P61161 1-394; Q99JY9 2-418; Q9WV32 1-372; Q9CVB6 1-300; Q9JM76 2-178; P59999 …); assay: GST pull-down from NIH 3T3 cell lysates, immunoblot with anti-p34 Arc
Experimental: 15 μg of the indicated fusion protein was indubated with lysates as in FIGS. 7a-7c. Bound material was detected after extensive washing and immunoblotting with anti-p34 Arc.
(§1) Recombinant protein purification, in vitro GST-‘pull downs’ and two-hybrid assays. Two-hybrid assays and in vitro translation/GST-pull downs were conducted as previously described (Tominaga et al., supra; Sahai, E. et al., Embo J 17, 1350-61 (1998)). […] Beads were rinsed three times with PBS 1×supplemented with 0.1 μg/μl of BSA and were analyzed by SDS-PAGE and immunoblotted with purified antibodies recognising either Arp3, p34, or actin. For pull-downs from cell extracts, NIH 3T3 cells were lysed and extracted as per (Machesky, L. M. et al., Curr Biol 8, 1347-56 (1998)), and incubated with purified GST-fusion proteins bound to glutathione beads before extensive washing, separation by SDS-PAGE, transfer, and immunoblotting.

[2] = biological target: mDia2 (amino acids 47-800), yeast two-hybrid Gal4 fusion (mouse, UniProt Q9Z207 47-800); assay: yeast two-hybrid
Experimental: (§2) Two-hybrid assays and in vitro translation/GST-pull downs were conducted as previously described (Kikyo et al., supra; Hill, C. S. et al., supra). In short, the indicated ‘bait’ proteins were generated by subcloning the indicated cDNAs into pGBT9 Gal4 DNA binding domain plasmid; ‘prey’ were Gal4 activation domain fusion proteins generated in either pGAD 10 or pSE1107. HF7c (Clontech) reporter yeast strain were co-transformed with the indicated plasmids and selected on appropriate plates for bait and prey auxotrophic markers, then restreaked onto His-plate to select for Gal4 regulated HIS reporter expression. Levels of reporter activity were monitored by replicate streaking onto Trp/Leu/His-plates with increasing concentrations (0-64 mM) of 3-aminotriazole.
The mutants were tested for binding by two-hybrid analysis and were then expressed in cells.

[3] = biological target: T2, mDia2 DAD (amino acids 1031-1171), yeast two-hybrid Gal4 fusion (mouse, UniProt Q9Z207 1031-1171); assay: yeast two-hybrid, HIS reporter growth on 3-aminotriazole
T2 construct: Two-hybrid construct; also called DRF-autoregulatory domain; Dia-autoregulatory domain
Experimental: Yeast reporter strain HF7c was transformed with the indicated ‘bait’ (Trp⁻) and ‘prey’ (Leu⁻) plasmids before restreaking on selective plates (His) with increasing concentrations 3-aminotriazole (0, 2, 4, 8, 16, 32, and 64 mM) that selects for correlating expression of the HIS-reporter gene. The indicated numbers correspond to the highest concentration of 3-AT on which there was growth after 3 days. […] The mDia2 plasmid encodes amino acids 47-800.
as §2

[4] = biological target: T1, Arp2/3 complex from NIH 3T3 cell lysates; assay: GST pull-down from NIH 3T3 cell extracts, immunoblot
Experimental: as §1
After incubation, the complexes were washed extensively and the resulting protein complexes were separated by SDS-PAGE, transferred to membranes, and analyzed by Western blots using antibodies directed to actin, Arp3 and p34 Arc (Welch, M. D. et al., Nature 385, 265-9 (1997)).

Chain of mDia2 (amino acids 47-800), yeast two-hybrid Gal4 fusion (Q9Z207 47-800 limits assumed): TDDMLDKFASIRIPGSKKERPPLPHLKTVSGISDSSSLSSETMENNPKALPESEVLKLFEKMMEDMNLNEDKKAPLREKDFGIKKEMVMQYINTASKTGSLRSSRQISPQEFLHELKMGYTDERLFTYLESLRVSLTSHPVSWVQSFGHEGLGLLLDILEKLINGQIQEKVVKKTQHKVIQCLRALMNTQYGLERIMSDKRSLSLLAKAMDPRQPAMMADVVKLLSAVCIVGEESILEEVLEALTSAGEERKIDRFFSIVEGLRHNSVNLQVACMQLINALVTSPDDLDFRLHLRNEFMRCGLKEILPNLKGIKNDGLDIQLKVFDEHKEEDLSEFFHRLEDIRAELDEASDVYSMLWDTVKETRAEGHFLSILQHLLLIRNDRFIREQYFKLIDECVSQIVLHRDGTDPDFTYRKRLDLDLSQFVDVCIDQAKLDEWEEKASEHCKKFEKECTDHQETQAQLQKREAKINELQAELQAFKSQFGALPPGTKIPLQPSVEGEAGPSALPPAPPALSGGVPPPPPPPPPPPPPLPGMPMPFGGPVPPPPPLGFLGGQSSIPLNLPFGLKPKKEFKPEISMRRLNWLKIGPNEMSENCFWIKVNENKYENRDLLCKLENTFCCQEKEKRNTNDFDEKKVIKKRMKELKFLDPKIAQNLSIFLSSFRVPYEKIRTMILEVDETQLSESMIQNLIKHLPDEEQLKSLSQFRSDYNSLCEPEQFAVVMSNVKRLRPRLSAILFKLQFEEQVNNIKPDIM

B1: GST-DAD K1059E/R1060E (other)
chain: MKTEGDETGVMDSLLEALQSGAAFRDRREETPKLKDIRQSLSPMSQRPVLKVCNHENQKMQLTEGSRPHHSINCNSTRTPVAKELNYNLDTHASTGRIKAVEKEACNAESNKKKEMELLGSVAKSESVPEVEALLARLRAL
notes: not shown: Glutathione-S-transferase carrier (pGEX-KG) and its linker at the N end
binding result [1]: no binding (tested: 15 ug fusion protein)

binding result [2]: no binding
B2: mDia2 DAD M1041A, yeast two-hybrid Gal4 fusion (other, not shown: small tags and cut ends)
chain: B1 chain with M11A, E29K, E30R

binding result [2]: no binding
B3: mDia2 DAD L1044A, yeast two-hybrid Gal4 fusion (other, not shown: small tags and cut ends)
chain: B1 chain with L14A, E29K, E30R

B4: GST-DAD R1057E/R1058E (other)
chain: B1 chain with R27E, R28E, E29K, E30R
notes: as for B1
binding result [1]: no binding (tested: 15 ug fusion protein)

binding result [2]: no binding
B5: mDia2 DAD L1048A, yeast two-hybrid Gal4 fusion (other, not shown: small tags and cut ends)
chain: B1 chain with L18A, E29K, E30R

binding result [3]: no binding
B6: mDia2 FH1 (amino acids 521-630), yeast two-hybrid Gal4 fusion (other, not shown: small tags and cut ends)
chain: AELQAFKSQFGALPPGTKIPLQPSVEGEAGPSALPPAPPALSGGVPPPPPPPPPPPPPLPGMPMPFGGPVPPPPPLGFLGGQSSIPLNLPFGLKPKKEFKPEISMRRLNW

binding result [4]: no binding
B7: GST fusion of mDia2 FH1 (amino acids 521-630) (other)
chain: B6 chain
notes: not shown: glutathione-S-transferase tag of pGEX-KG

binding result [4]: no binding
B8: GST fusion of mDia2 FH2 (amino acids 801-910) (other)
chain: AVSTACEEIKKSKGFSKLLELVLLMGNYMNAGSRNAQTFGFDLSSLCKLKDTKSADQKTTLLHFLVDVCEEKHADILHFVDDLAHLDKASRVSVEMLEKNVKQMGRQLQQ
notes: as for B7

binding result [3]: no binding
B9: mDia2 FH2 (amino acids 801-910), yeast two-hybrid Gal4 fusion (other, not shown: small tags and cut ends)
chain: B8 chain

binding result [4]: no binding
B10: GST fusion of mDia2 GBD (amino acids 101-216) (other)
chain: VLKLFEKMMEDMNLNEDKKAPLREKDFGIKKEMVMQYINTASKTGSLRSSRQISPQEFLHELKMGYTDERLFTYLESLRVSLTSHPVSWVQSFGHEGLGLLLDILEKLINGQIQEK
notes: as for B7
